From publication PMC5391581 come the findings set out here.

For assay [1], the target named is SV40 LT 131-627 tK419A (Simian Virus 40). Briefly: SEC; Superdex 200 10/300 GL; 250 μg LT (0.8 μg/μL) incubated with 4 mM TTP and 1 mM MgCl2; 25 mM Tris pH 8.0, 250 mM NaCl, 0.5 mM TCEP; percent hexamer from peak areas; monomer to hexamer.
Assay [2] has the same target. Briefly: SEC; Superdex 200 10/300 GL; 250 μg LT (0.8 μg/μL) incubated with 4 mM ATP and 1 mM MgCl2; 25 mM Tris pH 8.0, 250 mM NaCl, 0.5 mM TCEP; percent hexamer from peak areas; monomer to hexamer. For orientation: SEC sorts molecules by how far they enter the pores of the column.
The target in assay [3] is SV40 LT 131-627 cW393A (Simian Virus 40). The assay is described as above.
Assay [4] concerns the target SV40 LT 131-627 cL557A (Simian Virus 40). The description is as above.
The target of assay [5] is SV40 LT 131-627 cS430T (Simian Virus 40). Briefly: SEC; Superdex 200 10/300 GL; 250 μg LT (0.8 μg/μL) incubated with 4 mM UTP and 1 mM MgCl2; 25 mM Tris pH 8.0, 250 mM NaCl, 0.5 mM TCEP; percent hexamer from peak areas; monomer to hexamer.
For assay [6] the target is unchanged. Put plainly: SEC; Superdex 200 10/300 GL; 250 μg LT (0.8 μg/μL) incubated with 4 mM ATP and 1 mM MgCl2; 25 mM Tris pH 8.0, 250 mM NaCl, 0.5 mM TCEP; percent hexamer from peak areas; monomer to hexamer.
For assay [7], the target named is SV40 Large Tumor Antigen (LT) 131-627, wild type (Simian Virus 40). Briefly: SEC; Superdex 200 10/300 GL; 250 μg LT (0.8 μg/μL) incubated with 4 mM UTP and 1 mM MgCl2; 25 mM Tris pH 8.0, 250 mM NaCl, 0.5 mM TCEP; percent hexamer from peak areas; monomer to hexamer.
The target is the same in assay [8]. Put plainly: SEC; Superdex 200 10/300 GL; 250 μg LT (0.8 μg/μL) incubated with 4 mM ATP and 1 mM MgCl2; 25 mM Tris pH 8.0, 250 mM NaCl, 0.5 mM TCEP; percent hexamer from peak areas; monomer to hexamer.

Broadly, the stoichiometry N is the number of molecules, sites or subunits per partner or assembly. In the case of “SV40 LT 131-627 tK419A (domain or fragment)”, the decrease in hexamer formation compared to WT (TTP + Mg++) in assay [1] turned out to be 25.2%. Further, in assay [2], the percent hexamer formed (ATP + Mg++) amounted to 83.9% and the stoichiometry N came to 6.

For the substance “SV40 LT 131-627 cW393A (domain or fragment)”, in assay [3], the percent hexamer formed (ATP + Mg++) was 97.9% and the stoichiometry N was 6.

With “SV40 LT 131-627 cL557A (domain or fragment)”, in assay [4], the percent hexamer formed (ATP + Mg++) stood at 99.9% and the stoichiometry N came to 6.

In the case of “SV40 LT 131-627 cS430T (domain or fragment)”, the percent hexamer formed (UTP + Mg++) in assay [5] was 84.6%. The stoichiometry N in assay [6] is 6.

In the case of “SV40 Large Tumor Antigen (LT) 131-627, wild type (domain or fragment)”, in assay [7], the percent hexamer formed (UTP + Mg++) turned out to be 69.4%. Further, the stoichiometry N in assay [8] amounted to 6.
